13 sequences from the DeepSol protein solubility set can be followed below.

A short description of the data set: soluble on expression in E. coli; label from the status in PepcDB or PDB records.
“MGSDKIHHHHHHMRQPDHDDERAQCFAGFAPESIAHYLEHVWLGTPNPVEEPALADDRTASLAVIPVSELAGRRTELLDAMVTLYGGERETHARALLSQWTKYYFGFTATAGFVAAALLRRPLAMSPDNTHIVLRDGLPIAAYFARDALQPVECDPARRYAPLVEHLNAVIEMLCTMTRIAPRVLWSNAGNLLDYLFEQCAPQFDLSEDIAWLFGPLAANGEANPLRLPVRQAKPRAASLPNPFSARRVCCVRYEIPGETQLCGRCPLLLTMSDAEIALQAASQ”: the “soluble on expression in E. coli” value was “not soluble”. Under “MGSDKIHHHHHHMTQSDFFSLDGISKRFGVVQALDNVSIAFRPGEVLALVGENGAGKSTMMRILEGVSGPDTGTVRHGSTPIVFGEPRDSHRAGIRVIHQEPEIVPNLTVAENIFVGELPRLAGVLLDWRKLEEQTDRVLATFGMQQDMRPRQLCGTLGPAQRQMIEIMRAIRAGGRLIAFDEPTSSLTDDEARRLFSVVRRLREKGTSIIYISHRLNEIIDLADRIVVLRDGRLVDDSPAAGASEQTIAKLMVGRNIDDLFTRETWRSGEQLLDVAGLTTDRVNDVSLRVRRGEVLGIAGLMGAGRSELAKAIVGYDRRIAGTIAMNGVPVLPNSPHAAIVAGIGFAPEDRKHEALLLFRSILDNAALCVPDKTSSFGFFNRRKAMEIVSPLAAKMSIKAPNLDEQVSKLSGGNQQKVVLARWLARQPMLLILDEPTRGIDIGAKAEIYRLIDELAASGIGIILISSEMPELIGLADRVLVMAGGRITAELARPDIDEATILKHAMPQSASSPGDYIQ” stands “not soluble”; under “MAHHHHHHMHTDDKQAQRYPRTSDAARVHSTLRVGQNTSDKVPYGRLSSQSGPGTPRGDLFPPSNGLSKVEGEETPAAGAWQYPSEPMATPNTRSVQLNGALPVKNEEGETKCSGDAIREEGTKDGGDGVIIGIDAAVEAGVLVANEESGKEDENRESNVNSTPCASGTNETIATATPTLSNATAASVVLTPAVPASTGLRASRRLLDFTGSTNVSNGPRAASRLFDVKPVGGGAQAASQGVGFLRLSKTVPSAASQAVSARMRTSRKNGPTLSATSRGHSSTAHENLPCRNDYTSLRLKEQRRRELYAWNEELRRQDKSDMSADAV”, “not soluble”. Turning to “TTAYMEYNTTGSVKGLDNVKIRRALNLATNRKGVVQAAVDTGSKPAIAFAPTGLAKTPDGTDLAKYVAPGYEYNKTEAAKLFKEGLAESGLTKLKLTITADADAPAAKNSVDYIKSTWEAALPGLTVEEKFVTFKQRLEDSRKQNFDIVVSLWGGDYPEGSTFYGLFKSDSQNNDGKFANKDYDAAYNKAISEDAMKPAESAKDYKEAEKILFEQGAYNPLYFRSGKGLQNPKLKGVIRNTTGLSIDFTHAYKK”, the “soluble on expression in E. coli” value is reported as “not soluble”. For “KCETKEKGAITAKELYTMMTDKNISLIIMDARRMQDYQDSCILHSLSVPEEAISPGVTASWIEAHLPDDSKDTWKKRGNVEYVVLLDWFSSAKDLQIGTTLRSLKDALFKWESKTVLRNEPLVLEGGYENWLLCYPQYTTNAKV”, the “soluble on expression in E. coli” value is given as “soluble”. Then “MGSDKIHHHHHHMFVQARIDTTQDALVWPVVEFQGWVAFFGQRDSFDVYLNGDRVDNVHTVARPDVEEVLGAGWASIGWHVVCDIGQSARDNGHAIIFDVRVRTQTVAQGCFRYKDRLETTTQPLKIILHMPKTGGTSLRLALEEHRKNLFLLPLYHRDFSAIKSLSSLSVDRLDVAYGHVLYGIHEQIARPVTYMTVLRNPYDFVTSLYFFAKYVQRDHSILAAENIVDAVNTVNRPEFDNYYTRTIAGIQPEEPVTEEDLQRAIKNIDTHFSFIGLAERSRQSFRIFSEVFGLPLRYLKENVTPDLVEREFMNFRSVNEEIKKCINLDLILYKYAIKKFWYMDIE”, with “not soluble”; and “NKSDAAAKQIKKLEEDFDGRIGVFAIDTGSGNTFGYRSDERFPLCSSFKGFLAAAVLERVQQKKLDINQKVKYESRDLEYHSPITTKYKGSGMTLGDMASAALQYSDNGATNIIMERFLGGPEGMTKFMRSIGDNEFRLDRWELELNTAIPGDKRDTSTPKAVANSLNKLALGNVLNAKVKAIYQNWLKGNTTGDARIRASVPADWVVGDKTGSCGAYGTANDYAVIWPKNRAPLIVSIYTTRKSKDDKHSDKTIAEASRIAIQAID”, with “soluble”; and “MQDAACARRFVEAFGKRAYRRPLTPEEADAYAALFGQGSFREGVEATITHMLVSPNFLYRSELEHHHHHH”, with “not soluble”. For “MGLTIPVILNSVNNLSDARYAAGMGVEFMGFEVEASGERYVSPDLYKAITAWLSGVQTVTELAVLTPAVLTTIQEQYQPDFIQFESVEGISQSDLADLPCIQKIIISTGQEAKIFNNLAQYIFSEANYVLLELSDWTNWTEFQQLITEINTAYPVIWSLPIEKEDAALIQEIELKGISLKGGDEQRPGWKDLDQLIDILEALEEN”, the “soluble on expression in E. coli” value was “not soluble”. Then “MKISPSLMCMDLLKFKEQIEFIDSHADYFHIDIMDGHFVPNLTLSPFFVSQVKKLATKPLDCHLMVTRPQDYIAQLARAGADFITLHPETINGQAFRLIDEIRRHDMKVGLILNPETPVEAMKYYIHKADKITVMTVDPGFAGQPFIPEMLDKLAELKAWREREGLEYEIEVDGSCNQATYEKLMAAGADVFIVGTSGLFNHAENIDEAWRIMTAQILAAKSEVQPHAKTA”, with “soluble”; and “MLSDYEEFLRLEKARKIILEILNEKGRDALYDLSGLSGGFLIDEKDKALLNTYIGSSYFAEKVNEYGLKHLGGDENDKCVGFNRTSSAILATILALKPKKVIHYLPELPGHPSIERSCKIVNAKYFESDKVGEILNKIDKDTLVIITGSTMDLKVIELENFKKVINTAKNKEAIVFVDDASGARVRLLFNQPPALKLGADLVVTSTDKLMEGPRGGLLAGKKELVDKIYIEGTKFGLEAQPPLLAGIYRALKNFNLERIRKAFERAKNFDLSKIEKLNKELKAIDDNINIVYERTPTGFVIKRVYKDDTINIKKLIEIGFNLLKNYGIITITVAGMPGASKSLRIDLTSRDAERIDDNYIIKAIVESIKMAFKS”, with “soluble”. Under “MGSDKIHHHHHHMSSSSLSSTSTRVTYAVGDFVYFDDTSATDAPYQIRKIEELVKTEKGGVDARCVVYLRRRDIPQHLLKIADQAQRRFDNYYEVDKKKPENFTTKGFIVVNGASEAAPEAAPEATEASAETSETKVKEDTDDVAEKMEEDEECPAPVGQGRTSSTEEPSASDAPAATAKDKKEEKEAKENAKNLKETAEAEATKLIDWGDGGLPLGVDKLTPDQRLKLRQHEIFMTRQSEILPAAAIRGKCRVVLLGDGEEAQNYLPLDDTFYHSLVYDPNAQTLLADK” stands “not soluble”; under “MEIKKGLEDVYVKETEITYIDGELGRLYYRGYSIYDLAEFSNFEEVSYLILYGKLPNREELNWFQEKLREERYLPDFIIKFLREVRKDAQPMDILRTAVSLLGIEDSKNDERTDIKGIKLISKFPTIVANYARLRKGLDIIEPDPKLSHSENFLYMLYGDRPNEIKSKAMDVTLILHIDHEMNASTFASLVVASTFSDLYSSIVAGISALKGPLHGGANYEALKMFKEIGSPEKVNDYILNRLSNKQRIMGFGHRVYKTYDPRARILKQYAKLLAEKEGGEIYTLYQIAEKVEEIGIKYLGPKGIYPNVDFFSSIVFYSLGFEPDFFPAVFASARVVGWVAHIMEYIKDNKIIRPKAYYKGEIGKKYIPIDSR”, “soluble”.
